Results published in US9540424B2, “Serum albumin binding molecules” (BRISTOL-MYERS SQUIBB COMPANY, priority 2010, dated 2017).
One block for each molecule: values may come before it.

Tests used:
3T3-L1 adipocytes = assay: pERK assay in 3T3-L1 adipocytes; assay type: cell-based, mouse
Description: 3T3-L1 cells (ATCC # CL-173) are mouse fibroblasts that can be differentiated into mouse adipocytes. Since β-klotho is expressed only in differentiated 3T3-L1 cells, it was necessary to first differentiate them before performing a β-klotho pERK 1/2 assay as described in Example B3.
The cells were grown in DMEM media (Invitrogen #12430-054) supplemented with 10% characterized fetal bovine serum (Hyclone # SH30071.03) and 1X Antibiotic-Antimycotic (Gibco #15240-096). Cells were cultured in a 37° C. incubator with 5% CO2. The sub-culturing procedure was followed as described in ATCC's product information sheet with the exception that TrypLE Express (Gibco #12605) was used instead of the Trypsin-EDTA solution.
Approximately 68 hours before differentiation, 5500 cells per well (in 150 μl media) were seeded into 96 well plates (Falcon #353072); cell numbers could be adjusted according to the time of the seeding and their doubling time, but cells were 100% confluent at the time the differentiation procedure was started. […]
At the ninth to tenth day of differentiation, the growth media was aspirated off the cells and cells were starved with 200 μl of DMEM (Invitrogen #12320-032) with 2% fetal bovine serum overnight. […] The plate was finally read on a PerkinElmer Envision 2103 Multilabel Reader, using standard Alpha Screening settings.

diabetic ob/ob mice = assay: Acute and chronic effects of SABA1-FGF21v1 in diabetic ob/ob mice, 3 weeks daily treatment; assay type: in vivo, mouse
Excerpt: Additional acute and chronic effects of SABA1-FGF21v1 were examined in the diabetic ob/ob mice. At study termination after 3 weeks of daily treatment, reductions in plasma glucose, insulin and total cholesterol were observed. Plasma alanine aminotransferase was reduced and β-hydroxybutyrate levels were elevated.

HSA [1] = molecular target: T1, HSA (Homo sapiens, UniProt P02768); assay: SPR (Biacore T100) kinetics of FGF21-SABA1 fusions: HSA; assay type: binding; details: flow rate 30 μl/min
Description: (§1) The binding competency and thermodynamic characterization of FGF21-SABA fusion variants to human serum albumin were performed using Isothermal Titration calorimetry on a Microcal VP-ITC instrument (Microcal Inc. Amherst Mass., USA). […] The detailed experimental conditions are described below.
(§2) For the calorimetry assay, the FGF21-SABA variant SABA1-FGF21v1 (SEQ ID NO: 132) was used. […] For the SPR studies, SABA1-FGF21v1 and SABA1-FGF21v3 (SEQ ID NO: 134) were examined.
(§3) Serum albumins were dissolved in PBS buffer (10 mM sodium phosphate, 130 mM sodium chloride, pH 7.1) to a concentration of 10 mg/ml, and subsequently diluted to 8-10 μg/ml in 10 mM sodium acetate pH 5.0 for immobilization. Serum albumins were immobilized on a Series S CMS sensor chip using standard ethyl(dimethylaminopropyl) carbodiimide (EDC)/N-hydroxysuccinimide (NHS) chemistry in HBS-EP+ running buffer at 25° C., following general manufacturer guidelines. Flow cell 1 was activated with EDC/NHS and blocked with ethanolamine. […] Kinetic experiments were performed in PBS buffer containing 0.05% tween-20 (running buffer) at either 25° C. or 37° C. […] These samples were injected across flow cells 1-4 for 300 s, with a 420 s dissociation time, at flow rates of 30 μl/min or 60 μl/min to check for mass transfer limitation. All surfaces were regenerated with 2 pulses of 10 mM glycine pH 2.0 at 30 μl/min for 30 s. Raw sensograms were “double-referenced” by subtracting flow cell 1 data from flow cell 2, 3 or 4 data, and then subtracting a separate buffer cycle from each sensogram. The double-referenced sensogram data was fitted to a 1:1 Langmuir model using Biacore T100 Evaluation software version 2.0.2 to determine the association rate constant (ka), the dissociation rate constant (kd), and the equilibrium dissociation constant (KD).

HSA [2] = molecular target: T1, HSA; assay: Isothermal Titration calorimetry of SABA1-FGF21 fusion with HSA; assay type: binding; details: 37° C., PBS buffer
Description: as §1, §2
SABA-FGF21 fusion protein plus buffer was placed in the instrument sample cell at a concentration range of 0.4 to 1.0 mg/mL protein. The matching buffer was placed in the reference cell. Concentrations were determined using extinction coefficients calculated from the protein sequences of the pure proteins. The instrument reaction cell was equilibrated at 37° C. […] Data sets obtained were baseline-subtracted and corrected for the heat of dilution of the HSA injected into the cell. The resultant thermogram data was fitted using Origin™ evaluation software package (Microcal Inc.) version 2.0.2 to estimate the stochiometry, enthalpy, and equilibrium disassociation constant (KD) of the protein-protein binding reaction.

CySA = molecular target: T2, CySA (Macaca fascicularis, UniProt A2V9Z4); assay: SPR (Biacore T100) kinetics of FGF21-SABA1 fusions: CySA; assay type: binding, cynomolgous monkey; details: flow rate 30 μl/min
T2 construct: purchased Equitech-Bio CMSA
Description: as §1, §2, §3

[3] = after 3 weeks of daily treatment

T2 sequence (A2V9Z4 25-608): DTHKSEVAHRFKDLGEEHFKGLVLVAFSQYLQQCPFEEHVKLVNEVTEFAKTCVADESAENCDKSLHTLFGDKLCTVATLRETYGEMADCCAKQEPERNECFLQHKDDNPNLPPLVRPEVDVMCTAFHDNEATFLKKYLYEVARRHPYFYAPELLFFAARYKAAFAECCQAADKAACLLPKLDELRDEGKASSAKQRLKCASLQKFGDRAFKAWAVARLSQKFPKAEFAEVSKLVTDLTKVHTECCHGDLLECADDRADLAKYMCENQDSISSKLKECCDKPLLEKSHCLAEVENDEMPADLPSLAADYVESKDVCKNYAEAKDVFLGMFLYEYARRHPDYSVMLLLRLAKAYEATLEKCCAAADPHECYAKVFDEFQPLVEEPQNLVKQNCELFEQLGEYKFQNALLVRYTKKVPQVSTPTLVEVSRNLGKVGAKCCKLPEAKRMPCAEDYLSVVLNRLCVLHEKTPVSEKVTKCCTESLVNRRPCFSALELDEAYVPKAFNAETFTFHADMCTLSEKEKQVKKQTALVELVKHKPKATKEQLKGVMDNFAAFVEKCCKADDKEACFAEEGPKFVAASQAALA

B1: His-tagged FGF21: non-fused His-tagged FGF21 (“FGFv1”; SEQ ID NO: 125) used as a comparator (protein)
chain: MHHHHHHPIPDSSPLLQFGGQVRQRYLYTDDAQQTEAHLEIREDGTVGGAADQSPESLLQLKALKPGVIQILGVKTSRFLCQRPDGALYGSLHFDPEACSFRELLLEDGYNVYQSEAHGLPLHLPGNKSPHRDPAPRGPARFLPLPGLPPALPEPPGILAPQPPDVGSSDPLSMVGPSQGRSPSYAS
modifications: His6 tag
EC50 (3T3-L1 adipocytes): 4 ± 2 nM
Fold Activation (3T3-L1 adipocytes): 2.1 ± 0.2

kd (HSA [1]; 25° C.): 0.000333 s⁻¹
kd (HSA [1]; 37° C.): 0.00111 s⁻¹
N (stoichiometry) by isothermal titration calorimetry (HSA [2]): 0.87
ka (CySA; 25° C.): 3930 M⁻¹ s⁻¹
kd (CySA; 25° C.): 0.0047 s⁻¹
ka (CySA; 37° C.): 4440 M⁻¹ s⁻¹
kd (CySA; 37° C.): 0.0123 s⁻¹
B2: SABA1-FGF21v1: SABA1-FGF21 fusion, SEQ ID NO: 132; 293 aa; DNA SEQ ID NO: 184 (protein)
chain: MGVSDVPRDLEVVAATPTSLLISWHSYYEQNSYYRITYGETGGNSPVQEFTVPYSQTTATISGLKPGVDYTITVYAVYGSKYYYPISINYRTEIEKPSQGSGSGSGSGSGSGSPIPDSSPLLQFGGQVRQRYLYTDDAQQTEAHLEIREDGTVGGAADQSPESLLQLKALKPGVIQILGVKTSRFLCQRPDGALYGSLHFDPEACSFRELLLEDGYNVYQSEAHGLPLHLPGNKSPHRDPAPRGPARFLPLPGLPPALPEPPGILAPQPPDVGSSDPLSMVGPSQGRSPSYAS
Plasma alanine aminotransferase (diabetic ob/ob mice; [3]): reduced
β-hydroxybutyrate levels (diabetic ob/ob mice; [3]): elevated
oral glucose tolerance test (diabetic ob/ob mice; mouse, in vivo, po): increased capacity to handle a glucose load
plasma glucose, insulin and total cholesterol (diabetic ob/ob mice; study termination after 3 weeks of daily treatment): reductions
ka (HSA [1]; 25° C.): 3380 M⁻¹ s⁻¹
ka (HSA [1]; 37° C.): 5960 M⁻¹ s⁻¹
